# In the nanobody polyreactivity screen of Harvey et al. (2022):
# Experiment: yeast display, Sf9 membrane polyspecificity reagent, FACS + sequencing; frameworks hold sequencing errors
# Outline: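 Polyreactivity labels are assigned by the sorting gate from which each nanobody was recovered. The gates were low and high (top ~1%), set on anti-HA fluorescence for expression and streptavidin fluorescence for reagent binding. Before sorting, galactose-induced (36–48 hours) yeast display cells were stained for 1 hour at 4 °C with 10% biotinylated, detergent-solubilized Sf9 membrane reagent.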
sequence,measurement,value
QVQLVESGGGLVQAGGSLRLSCAASGSTITSNAMGWYRQAPGKERELVAAINTSGGSTYYADSVKGRFTISRDNAKNTVYLQMNSLKPEDTAVYYCNADYGGDEYRGLEFDYWGQGTQVTVSS,polyreactivity (PSR sort gate),low polyreactivity
QVQLVESGGGLVQAGGSLRLSCAASGSTIVRYAMGWYRQAPGKERELVAAISSRGGSTYYADSVKGRFTNSRDNAKNTVYLQMNSLKAEDTGVYYCAAAQRCTNAYRVGSWGLGTQVTVSS,polyreactivity (PSR sort gate),high polyreactivity
QVQLVESGGGLVQAGGSLRLSCAASGSTIVYYAMGWYIQAPGKERELVAAITSGGSTYDADSVKGRCTISRDNAKNTVYLQMNSQKPEDTAVYYCHADWWRGDEAYRMYYWGQGTQVTVSS,polyreactivity (PSR sort gate),low polyreactivity
QVQLVESGGGLVQAGGSLRLSCAASGSTIYAMGWYRQAPGKERELVAGINRSGTRTYYADSVKGRFTISRDNAKNTVYLQMNSLKPEDTAVYYCAALVYRPTYGYIFDYWGQGTQVTVSS,polyreactivity (PSR sort gate),high polyreactivity
QVQLVESGGGLVQAGGSLRLSCAASGSTIYENAMGWYRQAPGKERELVAGISRGGGSTYYADSVKGRFTISRDNAKNTVYLQMNSLKPEDTAVYYCAAGSRVQGGYWGQGTQVTVSS,polyreactivity (PSR sort gate),low polyreactivity
QVQLVESGGGLVQAGGSLRLSCAASGSTIYFNGMGWYRQAPGKERELVAAITSGGSTDYADSVKGRFTISRDNAKNTVYLQMNSLKPEDTAVYYCAADHYGRYDYWGQGTQVTVSS,polyreactivity (PSR sort gate),low polyreactivity
QVQLVESGGGLVQAGGSLRLSCAASGSTIYFYAMGWYRQAPGKERELVAAITWSGGRTYYADSVKGRFTISRDNAKNTVYLQMNSLKPEDTAVYYCAAVRPPLARLYVAAKRFDSWGQGTQVTVSS,polyreactivity (PSR sort gate),low polyreactivity
QVQLVESGGGLVQAGGSLRLSCAASGSTIYGYAMGWDRQAPGKERELVAAISYRGGSTYYADSVKGRFTISRDNAKNTVYLQMNSLKPEDTAVYYCAALGDDATSYGYWGQGTQVTVSS,polyreactivity (PSR sort gate),high polyreactivity
QVQLVESGGGLVQAGGSLRLSCAASGSTIYHNAMGWYRQAPGKERELVAAISSGGSTHYADSVKGRFTISRDNAKNTVYLQMNSLKPEDTAVYYCATYSSVRQLLWGNGYWGQGTQVTVSS,polyreactivity (PSR sort gate),high polyreactivity
QVQLVESGGGLVQAGGSLRLSCAASGSTIYNYAMGSYRPAPGKVRELVASITWNGGSTYYADSVKGRFTISRDNAKNTVYLQMNSLKPEDTAVYYCAAEWTWTYPYDYWGQGTQVTVSS,polyreactivity (PSR sort gate),low polyreactivity
QVQLVESGGGLVQAGGSLRLSCAASGSTIYWYAMGWYRQAPGKERELVAAISLSGGSTYYADSVKGRFTFSRDNAKNTVYLQMNSLKPEDTAVYYCAARTSYYVYRHPSGRYDYWGQGTQVTVSS,polyreactivity (PSR sort gate),low polyreactivity
QVQLVESGGGLVQAGGSLRLSCAASGSTIYWYAMGWYRQAPGKERELVAAISLSGGSTYYADSVKGRFTISRDNAKNTVYLQMNSLKPEDTAVYYCAARTSYYVYRHPSGRYDYWGQGTQVTVSS,polyreactivity (PSR sort gate),low polyreactivity
QVQLVESGGGLVQAGGSLRLSCAASGSTIYWYTMGWYRQPPGKEMELVAAITGGTGNTYYADSVKGRFTISRDNAKNTVYLQMNSLKPEDTAVYYCAAYYRRYDYDYWGQGTQVTVSS,polyreactivity (PSR sort gate),high polyreactivity
QVQLVESGGGLVQAGGSLRLSCAASGSTIYYNAMGWYRQAPGKERELVARISRSGGSTYADSVKGRFTISRDNAKNTVYLQMNSLKPEDTAVYYCNADAYGTPEFTSYAVRYDYWGQGTQVTVSS,polyreactivity (PSR sort gate),low polyreactivity
QVQLVESGGGLVQAGGSLRLSCAASGSTKYYVMGWYRQAPGKERELVAAISRGSSTYYADSVKGRFTISRDNAKNTVYLQMNSLKPEDTAVYYCAARGPWQAPYDYWGQGTQVTVSS,polyreactivity (PSR sort gate),high polyreactivity
QVQLVESGGGLVQAGGSLRLSCAASGSTLAFYAMGWYRQATGKQRELVAAISRSGGRTYYSDSVKGRFTISRDNAKNTVYLQMNSLKPEDTAVYYCAAYWYYYWWYDYWGQGTQVTVSS,polyreactivity (PSR sort gate),high polyreactivity
QVQLVESGGGLVQAGGSLRLSCAASGSTLAIYAMGWYRQAPGKERELVAAISGGGSTYADSVKGRFTISRDNAKNTVYLQMNSLKPEETAVYYCNADGWGDRFWSNFRFDYWGQGTQVTVSS,polyreactivity (PSR sort gate),low polyreactivity
QVQLVESGGGLVQAGGSLRLSCAASGSTLANYAMGWYRQAPGKERELVAAINSGGSTYYADSVKGRFTISRDNAKNTVYLQMNSLKPEDTAVYYCAAETPNYYGWWEPVWHYYWGQGTQVTVSS,polyreactivity (PSR sort gate),high polyreactivity
QVQLVESGGGLVQAGGSLRLSCAASGSTLARYTMGWYRQAPGKERELVATIDFGGVNTYYADSVKGRFTISRDTAKNTVYLQMNSLKPEDTAVYYCAAYNRLKRNVLYDYWGQGTQVTVSS,polyreactivity (PSR sort gate),low polyreactivity
QVQLVESGGGLVQAGGSLRLSCAASGSTLASNAKGWYRQAPGKERELVAAIRVSGASTYYADSVKGRFTISRDNAKNTVYLQMNSLKPEDTAVYYCAADYQFGVIYYYWGQGTQVTVSS,polyreactivity (PSR sort gate),low polyreactivity
QVQLVESGGGLVQAGGSLRLSCAASGSTLATNAMGWYRQAPGKERELVAYADSVKGRFTISRDNAKNTVYLQMNSLNPEDTAVYYCNVVFRYAYGVYYTPEFYYWGQGTQVTVSS,polyreactivity (PSR sort gate),low polyreactivity
QVQLVESGGGLVQAGGSLRLSCAASGSTLATYTMGWYRQAPGKERELVAAISFGGSTYYADSVKGRFTISRDNAKNTVYLQMNSLKPEDTAVYYCAVYGDSYWGAYYYSDGYWGQGTQVTVSS,polyreactivity (PSR sort gate),low polyreactivity
QVQLVESGGGLVQAGGSLRLSCAASGSTLDEYVMGWYRQAPGKEREFVAAISRSGSSTYYADSVKGRFTISRDNAKNTVYLQMNSLKPEDTAVYYCAARLYSSVVRYRYGYWGQGTQVTVSS,polyreactivity (PSR sort gate),high polyreactivity
QVQLVESGGGLVQAGGSLRLSCAASGSTLDIYAMGWYRQAPGKERELVATINSTGGSTYYADSVKGRFTISRDNAKNTVYLQMNSLNPEDTAVYYCAADFGLFGPTTGYIRPYDYWGQGTQVTVSS,polyreactivity (PSR sort gate),low polyreactivity
QVQLVESGGGLVQAGGSLRLSCAASGSTLDKYAMGWYRQAPGKERELVAAISSSGGSTYYADSVKGRFTISRDNAKNTVYLQMNSLKPEDTAVYYCAARFFRGRYLDDYWGQGTQVTVSS,polyreactivity (PSR sort gate),high polyreactivity
QVQLVESGGGLVQAGGSLRLSCAASGSTLDPNVMGWYRQAPGKEREWVAAITTGGSTYYADSVKGRFTFSRDNAKNTVYLQLYSLKPEDTAFYYCNKDIGWLAHSRIWLWYDYWGQGTQVTVAS,polyreactivity (PSR sort gate),low polyreactivity
QVQLVESGGGLVQAGGSLRLSCAASGSTLDSYARGWYRQAPGTERELVAVIDTGGTTNYADSVKGRFTISRDNAKNTVYLQMNSLKPEDTAVYYCAADYAYYGYWFEGYDYWGQGTQVTVSS,polyreactivity (PSR sort gate),low polyreactivity
QVQLVESGGGLVQAGGSLRLSCAASGSTLGANAMGWYRQAPGKERELVAAISISDGDTYYADSVKGRFTISRDNAKNPVYLQMNSLKPEDTAVYYCAADYWFQYRWYDYWGQGTQVTVSS,polyreactivity (PSR sort gate),high polyreactivity
QVQLVESGGGLVQAGGSLRLSCAASGSTLGAYAMGWYRQAPGKERELVAAISRSGGNTYYADSVKGRFTISRDNAKNTVYLQMNSLKPEDTAVYYCAAVKLFLGLCYDYWGQGTQVTVSS,polyreactivity (PSR sort gate),low polyreactivity
QVQLVESGGGLVQAGGSLRLSCAASGSTLGGNAMGWYRQEPGKERELGAAITSSAGSTYYADSVKGRYTISRDNAKNTVYLQMNSLQPEDTAVYYCAADYSRDEYDYWGQGTEVTVSS,polyreactivity (PSR sort gate),low polyreactivity
QVQLVESGGGLVQAGGSLRLSCAASGSTLGLNAMGWYRKAPGKERELVAAISQSGTSTYYADSVKGRFTISRDNAKNTVYLQMNSLKPEDTAVYYCAVEYTQWWTYDYWGQGTQVTVSS,polyreactivity (PSR sort gate),low polyreactivity
QVQLVESGGGLVQAGGSLRLSCAASGSTLGQYVMGWYRQAPGKERELVAAISRRGGRTNYADSVKGRFTISRDNAKNTVYLQMNSLNPEDTAVYYCAAKFRIYRPSKYYYWGQGTQVTVSW,polyreactivity (PSR sort gate),high polyreactivity
QVQLVESGGGLVQAGGSLRLSCAASGSTLGRYAMGWYIQAPGKERELVAAISRGGGSTYYADSVKGRFTISRDNAKNTVYLQMNSLKPEDTAVYYCAARQYIGSPPHRRRFDYWGQGTQVTVSS,polyreactivity (PSR sort gate),high polyreactivity
QVQLVESGGGLVQAGGSLRLSCAASGSTLGRYAMGWYRQAPGKERELVAAISRGGGSTYYADSVKGRFTISRDNAKNTVYLQMNSLKPEYTAVYYCAVGIVHRDSRYYYWGQGTQVTVSS,polyreactivity (PSR sort gate),high polyreactivity
QVQLVESGGGLVQAGGSLRLSCAASGSTLISYTMGWYRQAPGKERELVAAITSAVTTYYADSVKGRFTISRDNAKNTVYLQMNSLIPEDTAVYDCNAVPDTRSGELDYWGQGTQVTVSS,polyreactivity (PSR sort gate),low polyreactivity
QVQLVESGGGLVQAGGSLRLSCAASGSTLKSYVMGWYRQAPGKERELVARISRSGGSTYYADSVKGRFTISRDNAKNTVYLQMNSLKPEDTAVYYCAAATPRLSYDYWGQGTQVTVSS,polyreactivity (PSR sort gate),high polyreactivity
QVQLVESGGGLVQAGGSLRLSCAASGSTLLSNAMGWYTQAPGKERELVAAINYSGGRTYYADSVKGRFTISRDNAKNTVYLQMNSLKPEDTAVYYCNALSSGHGSSSRYDYWGQGTQVTVSS,polyreactivity (PSR sort gate),low polyreactivity
QVQLVESGGGLVQAGGSLRLSCAASGSTLPANSMGWYRQAPGKERELVAAITITTDGSTYYADSVKGRFTISRDNAKNTVYLQMNSLKPEDTAVYYCAVARYRYHIRKMGYWGQGTQVTVSS,polyreactivity (PSR sort gate),low polyreactivity
QVQLVESGGGLVQAGGSLRLSCAASGSTLPSNTMGWYRQAPGKERELVAAISRNGGSTYYADSVKGRFTISRDNAKNTVYLQMNSLKPEDTAVYYCNRVYRERYPYVLYGYWGQGTQVTVSS,polyreactivity (PSR sort gate),high polyreactivity
QVQLVESGGGLVQAGGSLRLSCAASGSTLPVNAMGWYRQAPGKERELVAAINRDGSTNYADSVKRPFTFSRDNAKNTVYLQMNSLKQEDTAVYYCAADGFGYPGKRYDYWGQGTQVTVSS,polyreactivity (PSR sort gate),low polyreactivity
QVQLVESGGGLVQAGGSLRLSCAASGSTLQRYTMGLYRPAPGKERELDAAITQSGGSTFYADSVKGRFTISRDNAKNTVYLQMNSLKPEDTAVYYCAAKLTTGYYYGVPRDYWGQGTQVTVSS,polyreactivity (PSR sort gate),high polyreactivity
QVQLVESGGGLVQAGGSLRLSCAASGSTLQVYARGWYRQAPGKERELVAASSKSGGRTYYADSVKGRFTISRDNAKNTVYLQMNSLKPEDTAVYYCAADVGTAQSTYGYWGQGTQVTVSS,polyreactivity (PSR sort gate),high polyreactivity
QVQLVESGGGLVQAGGSLRLSCAASGSTLRAYAMGWSRQAPGKERELVAAINVSSGGTYYADSVKGRFTISRDNAKNTVYLQMNSLKPEDTAVYYCAARARWAGLRYTRYYYWGQGTQVTVSS,polyreactivity (PSR sort gate),high polyreactivity
